Measurements: US20120165211A1, “Human Antibodies Cross-Reacting With A Bacterial And A Self Antigen From Atherosclerotic Plaques” (priority 2007, published 2012)
Entries after “also recorded” stand apart in the source; their conditions may differ.

What was measured:
[1] = system: antigen present in Klebsiella pneumoniae; assay: Western blot assay on pathogen lysates; format: binding; conditions: Fab 10 μg/ml; 8 μg total protein lysate per well
Method: (§1) Bacterial cell lysates were carried out inoculating a colony or a scratch in 10 ml of SB and growing bacteria at 37° C. overnight. Cultures of Staphylococcus aureus, Proteus mirabilis, Klebsiella pneumoniae, Enterococcus cloacae, Streptococcus pyogenes, Neisseriae gonhorreae, Listeria monocytogenes were grown. Overnight cultures were harvested by centrifugation (4500 RPM for 10 min.) and then resuspended in 1 ml of RIPA buffer and protease inhibitor PMSF (1 mM final). After three cycles of freeze-and-thawing (37° C. and −80° C.) and one cycle of sonication (90 sec at max power) the lysate was cleared by centrifugation (15000 RPM at 4° C. for 20 min) Moreover one colony of Haemophilus influenzae was seeded on blood agar plates and then grown at 37° C. overnight. Haemophilus inluenzae colonies were collected and resuspended in 500 μl of RIPA/PMSF. All lysates were stored at −20° C. until usage.
(§2) Lysates from Listeria monocitogenes, Streptococcus pyogenes, Staphylococcus aureus, Enterococcus cloacae, Haemophilus influenzae, Proteus mirabilis, Escherichia coli, Klebsiella pneumoniae, were prepared as described in Example II. SDS-PAGE was performed according to standard techniques. Briefly, protein concentration of all lysates was determined by BCA kit (Pierce) according to manufacturer instruction. SDS-PAGE loading buffer was added to protein lysates before heating at 90° C. for 5 min. […]

[2] = system: antigen present in Proteus mirabilis; assay: Western blot assay on pathogen lysates; format: binding; conditions: Fab 10 μg/ml; 8 μg total protein lysate per well
Method: as §1, §2

B1: Fab7816: human recombinant Fab from coronary plaque library ID11LIB; heavy chain SEQ ID NO:2, light chain SEQ ID NO:4 (antibody, listed as Homo sapiens, V domains shown)
VH: LESGPGQVKPSQTLSLTCTVSGGSIGSGSYSWNWIRQPAGRGLEWIGRISDSGNTNFNPSLKSRVTMSVDTSKNQFALKLTSVTAADTATYFCARGRGILTGLFDYWGQGSLVSVSSASTKGPSVFPLAPSSKSTSGGTAALGCLVKD
VL: SPDSLAVSPGGRATIKCASSQSVLDNSNHKNSLAWYQQKPGLPPKLLIYWASTRYSGVPDRFSGSGSGTDFTLTINNLQAADVAVYFCQQYYSTPWTFGQGTKVE
Question: How did the “binding in Western blot on Klebsiella pneumoniae lysate” value [1] turn out when B1 was run?
Answer: The value was “binds specifically; also recorded: recognizes with high specificity and affinity”.

Question: And the “binding in Western blot on Proteus mirabilis lysate” value [2]?
Answer: The value was “binds specifically; also recorded: recognizes with high specificity and affinity”.
